# According to the supplement of paper PMC12042874:
# ± gives the uncertainty stated by the source.
# Assay: amyloid nucleation score (Sup35N fusion, yeast selection) (log enrichment); library NNK3; higher = more nucleation; inactive = no reads after selection
# In short: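 Nucleation score is defined as the DiMSum log enrichment of output over input reads, with centring on the mode score of non-aggregating sequences. A minimum of 100 input reads was required for each sequence. Reads came from Illumina sequencing of plasmid inserts from psi-negative yeast expressing Sup35N fused to peptides of 20 random codons, induced with 100 μM copper sulfate for 24 hours and grown 7 days at 30°C on medium lacking adenine and uracil.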
row,Substance,amyloid nucleation score
1,LVLYCF,inactive
2,YTVGIVTDWFVTSGNSFYK,inactive
3,QDFYFISILACGYIWH,inactive
4,NNGFGSWGV,inactive
5,LLSHYFHGMCMTHISGIFVM,inactive
6,CILKHSGR,inactive
7,RFWFMDFFSH,1.89 ± 0.076
8,SFSYFRVSFEYGRCHRYAEN,inactive
9,VPFDGLFWYCRCR,inactive
10,WILLGRSSQWSWASGGNSGQ,1.5 ± 0.092
11,LYLIFFCLWSSQLDAQLFVL,-0.217 ± 0.93
12,MIVGYACFAFGAWFFGFYCM,inactive
13,IQDHFELFTNVGSYFQIQPL,inactive
14,TASVLNYFSGFWRGV,1.04 ± 0.17
15,RDHSTMQTEVLEWSRNPSMG,inactive
16,HSRWMAFPWMLGPLLLNRNL,inactive
17,YSESMRGNQ,inactive
18,GGNSWITSMLAYWLTSAHNA,inactive
19,SVYRSRSHRVFWEFLSGAT,inactive
20,RNSRSLSLPCC,inactive
21,LYTGYVLAIMYWAVLARENT,-1.45 ± 2.5
22,DDSMHDGLRVTRRVCKRGSF,inactive
23,FVRLHSFA,inactive

row,Substance,amyloid nucleation score
1,RLFSRDLTSFCFLFFNFRWK,inactive
2,DKSDQSSRRFSGTRAYFSTM,inactive
3,IAWRQAGDFITLNLSIWMRL,inactive
4,DEEQF,-0.143 ± 0.34
5,FSLDPTIVMSVIARDSMSML,inactive
6,RSFLIRFILDLVYIRRTRNV,-0.273 ± 1.1
7,YIYTFYSVSY,0.201 ± 0.17
8,MCWLLLIRWDK,inactive
9,ICSMYTTVSRNTEL,inactive
10,NIFRMRNQVIRSVLNVHVMT,inactive
11,FYKLTLRSVRFLSFTYRIGA,inactive
12,RIFLIICKMYYFRNNRLFRM,-0.508 ± 0.8
13,SLCFRSIINIGFFK,2.15 ± 0.056
14,TGLNIILLLCFMMSLGES,inactive
15,ISTLGYFAELVI,inactive
16,VNLVLIISNPR,inactive
17,KPISRRGWPRPKAGRNEPPR,inactive
18,FNKGYV,inactive
19,RHNARRWCTVSC,inactive
20,IICLK,inactive
21,RWNVHCYAMLFDVGLVDARL,inactive
22,SESQYRRWYTLAFVYMRHLN,inactive
23,TAKSSGINDRLTQRI,inactive

row,Substance,amyloid nucleation score
1,PCPSEFDLSGRYRAAWVRCS,inactive
2,YILRFSWFIYLIRQWSNSGP,inactive
3,IDLKY,inactive
4,WISSSGIPFDRYLLWYNSVG,inactive
5,NYWSTQLSIFCCKDCATTSA,2.42 ± 0.063
6,RVLNAYSLEYKCISSMPWYL,1.49 ± 0.14
7,KYINFSLNS,inactive
8,MSRMMSLNMECTSGMPESQV,inactive
9,TLGIWRDYSYKTILRRWDDR,inactive
10,IKYLNLVRSVPLFS,inactive
11,CKAESLWFNGLF,inactive
12,CQLAV,inactive
13,INCLDFYTTVYNTRSWIFVH,inactive
14,TMNAICLNPVS,inactive
15,LCQTVCRAPI,inactive
16,VLLLFWAPVNAGTVWYLWNR,inactive
17,WVMCFVAWCSAFLRTNFIDM,inactive
18,TVSIRIINT,0.15 ± 0.66
19,TRLGYKKGFFMTSSSHRLMV,inactive
20,QTTLSYIVCMQSRQLRNRAW,0.848 ± 0.099
21,SMQGDRWFLVL,inactive
